Assay [1] deals with RAJI-KIR3DL2 cells. Kind of assay: KIR3DL2 surface expression by flow cytometry on RAJI-KIR3DL2 cells. The class given is cell-based. The settings on record: RAJI-KIR3DL2, same experimental conditions. As for the experimental part: (§1) RAJI-KIR3DL2 (48 hour incubation) (FIG. 2, left hand panel) or Hut 78 ([…]; 24 hour incubation (FIG. 2, right hand panel) were incubated with ascending doses of gemcitabine and oxaliplatin. Median intensity of fluorescence of KIR3DL2 on tumor cell line surface was analyzed by flow cytometry.
(§2) Briefly, Hut78 cells (Sezary Syndrome cell line) or RAJI-KIR3DL2 cells (RAJI B-NHL cell line transfected with human KIR3DL2 were incubated with ascending doses of gemcitabine and oxaliplatin. Median intensity of fluorescence of KIR3DL2 on tumor cell line surface was analyzed by flow cytometry.
In general terms: Flow cytometry measures light scatter and fluorescence of single cells or particles in a stream.

The test system of assay [2] is Hut78 cells. Kind of assay: KIR3DL2 surface expression by flow cytometry on Hut78 cells. In kind it is cell-based. As to conditions: Hut78 / TCL cells. As for the experimental part: as §1, §2
The test system of assay [3] is KIR3DL2-expressing Sézary Syndrome cell line (Hut 78). Kind of assay: In vitro cellular cytotoxicity (ADCC) assay with allogeneic NK cells and Hut 78 cells, with increasing concentrations of anti-KIR3DL2 antibody. As to conditions: chemotherapeutic agent added to lacutamab, allogeneic NK cells, FIG. 1. The class given is cell-based. Here is the method: Consequently, we sought to evaluate whether chemotherapeutic agents affect the NK cell-mediated ADCC activity of humanized 2B12 antibody lacutamab having human IgG1 isotype and the VH and VL amino acid sequences shown in SEQ ID NOS: 49 and 44, respectively. Chemotherapeutic agents were added, alone or in combination, to an in vitro cellular cytotoxicity (ADCC) assay with allogeneic NK cells and KIR3DL2-expressing Sézary Syndrome cell line (Hut 78), in presence of increasing concentrations of the anti-KIR3DL2 antibody.

For assay [4], the system named is RAJI-KIR3DL2. In kind it is in vivo. As to conditions: twice a week; antibody 0.3 μg per injection, gemcitabine 50 mg/kg, oxaliplatin 5 mg/kg; FIG. 3.
Description: A xenograft model in the CB17-SCID mouse whereby the immunocompromised mouse strain that retains fully functional NK cells and macrophages. […] The B-NHL cell line RAJI was transfected to stably express KIR3DL2 (RAJI-KIR3DL2), and the transfectants were inoculated (5×10^6 cells) to the SCID mice by IV thereby providing a disseminated tumor model. Initially, individual doses of gemcitabine and oxaliplatin were established in this xenograft model.
Assay [5] concerns the target T1, KIR3DL2 (Homo sapiens, UniProt P43630). Details: host or cells: tumor cells (not further named). The settings on record: into cells / tumor cells; cited from earlier work.
Assay [6] concerns the target human KIR3DL1 (Homo sapiens, UniProt P43629). The settings on record: cited from earlier work.
Assay [7] addresses T1, KIR3DL2. As to conditions: cited from earlier work.
In assay [8] the test system is refractory SS patients. Kind of assay: Clinical trials of single agent IPH4102 in refractory Sézary Syndrome patients. The class given is in vivo, human. The settings on record: repeated administrations of single agent. An excerpt:
Antibodies that specifically bind to KIR3DL2 are well known in the art. Innate Pharma for example have described numerous anti-KIR3DL2 antibodies directed to a range of different epitopes on KIR3DL2, e.g., antibodies 15C11, 19H12, 22B2, 18B10, 12B11, 13H1, 10F6, 2B12, 18C6, 9E10, 10G5, 13H1, 5H1, 1E2, 1C3 and 20E9 described in PCT publication nos. WO2014/044681 and WO2014/044686. […] These encouraging results, moreover with few side effects and the ability to deplete malignant KIR3DL2-expressing cells without causing the depletion of healthy KIR3DL2-expressing NK and T cells provides an important advance in treating TCLs.

T1 sequence (P43630 22-455): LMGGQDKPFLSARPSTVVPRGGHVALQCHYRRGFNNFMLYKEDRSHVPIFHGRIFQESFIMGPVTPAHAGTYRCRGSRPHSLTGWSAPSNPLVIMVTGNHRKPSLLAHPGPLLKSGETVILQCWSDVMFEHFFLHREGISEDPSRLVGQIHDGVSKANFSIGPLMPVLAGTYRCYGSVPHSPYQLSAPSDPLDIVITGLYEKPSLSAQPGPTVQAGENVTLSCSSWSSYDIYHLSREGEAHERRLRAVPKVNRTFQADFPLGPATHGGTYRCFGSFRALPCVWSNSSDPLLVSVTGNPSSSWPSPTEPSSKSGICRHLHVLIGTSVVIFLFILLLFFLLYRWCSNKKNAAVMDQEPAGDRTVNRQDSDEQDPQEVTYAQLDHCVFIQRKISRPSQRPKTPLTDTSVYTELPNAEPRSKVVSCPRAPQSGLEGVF
human KIR3DL1, sequence (P43629 22-444): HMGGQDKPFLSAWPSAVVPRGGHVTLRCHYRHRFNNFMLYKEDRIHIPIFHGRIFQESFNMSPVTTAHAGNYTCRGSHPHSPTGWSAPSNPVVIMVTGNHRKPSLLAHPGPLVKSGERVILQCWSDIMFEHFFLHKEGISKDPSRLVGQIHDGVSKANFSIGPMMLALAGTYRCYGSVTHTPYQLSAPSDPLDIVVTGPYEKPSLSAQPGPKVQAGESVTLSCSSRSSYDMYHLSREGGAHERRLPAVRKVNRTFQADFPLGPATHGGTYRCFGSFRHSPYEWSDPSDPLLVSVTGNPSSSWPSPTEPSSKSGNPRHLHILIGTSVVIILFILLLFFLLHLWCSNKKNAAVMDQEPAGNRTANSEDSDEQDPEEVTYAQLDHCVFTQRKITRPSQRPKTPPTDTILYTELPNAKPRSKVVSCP

`O=P1(N(CCCl)CCCl)NCCCO1` (stereo not shown) [cyclophosphamide]: the “effect on KIR3DL2 expression” value in assay [1] and in assay [2] was “did not increase KIR3DL2 expression” throughout.

In the case of `Nc1ccn([C@@H]2O[C@H](CO)[C@@H](O)C2(F)F)c(=O)n1` [gemcitabine], the “effect on anti-KIR3DL2 antibody-induced ADCC / anti-tumor activity against HUT78” value in assay [3] was “enhanced”. In the case of `O=C1[O][Pt]2([NH][C@@H]3CCCC[C@H]3[NH]2)[O]C1=O` [oxaliplatin], in assay [3], the “effect on anti-KIR3DL2 antibody-induced ADCC / anti-tumor activity against HUT78” value is reported as “enhanced”. Further, the “anti-tumor activity in vivo” value in assay [4] is reported as “very limited, if any, anti-tumor effect”.

B1: 12B11: anti-KIR3DL2 antibody, VH SEQ ID NO: 16, VL SEQ ID NO: 17 (antibody, listed as Mus musculus, V domains shown)
VH: QLVQSGPELKNPGETVKISCKASGYTFTNYGMNWVKQAPGKGLKWMGWINTYTGEPTYADDFKGRFAFSLETSASTAYLQINNLKNEDTATYFCAHGPWLAYWGQGTLVTVS
VL: DIKMTQSPSSMYASLGERVTITCKASQDINVYLSWFQQKPGKSPKTLIYRAIRLVDGVPSRFSGSGSGQDYSLTISSLDYEDMGIYYCLQYDELPYTFGGGTKLEIE
As to B1, the “internalization via KIR3DL2” value in assay [5] is “capable of being internalized”.

B2: AZ158: antibody binding human KIR3DL2 and KIR3DL1, VH SEQ ID NO: 3, VL SEQ ID NO: 4 (antibody, V domains shown)
VH: QVQLKESGPGLVAPSQSLSITCTVSGFSLTSFGVHWVRQPPGKGLEWLGVIWAGGSTNYNSALMSRLSISKDNSKSQVFLKMNSLQNDDTAMYYCARGNSNHYVSSFYYFDYWGQGTTLTVSS
VL: DIQMTQSPSSLSASLGGKVTITCKASQDINKYIAWYQHKPGKGPRLLIHYTSTLQPGIPSRFSGSGSGRDYSFSISNLEPEDITTYYCLQYDNLWTFGGGTKLEIK
modifications: mus musculus
As to B2, the “binding to KIR3DL1” value in assay [6] is recorded as “binds”. For the same molecule, the “binding to KIR3DL2” value in assay [7] was “binds”.

B3: IPH4102: humanized 2B12 anti-KIR3DL2 antibody, human IgG1, VH SEQ ID NO: 49 and VL SEQ ID NO: 44 (antibody, V domains shown)
VH: QIQLVQSGSELKKPGASVKVSCKASGYTFTTAGMQWVRQAPGQGLEWIGWINSHSGVPKYAEDFKGRFVFSLDTSVSTAYLQISSLKAEDTAVYFCARGGDEGVMDYWGQGTTVTVSS
VL: DIQMTQSPSFLSASVGDRVTITCKASQDVSTAVAWYQQKPGQPPKLLIYWTSTRHTGVPDRFSGSGSGTDYTLTISSLQAEDVAVYYCQQHYSTPWTFGGGTKVEIK
As to B3, in assay [8], the “median duration of response (DoR)” value is 13.8 months, the “median progression-free survival (PFS)” value was determined as 11.7 months and the “overall response rate (ORR)” value worked out at 42.9%.

B4: 19H12: anti-KIR3DL2 antibody, VH SEQ ID NO: 5, VL SEQ ID NO: 6 (antibody, V domains shown)
VH: QIQLVQSGPELKKPGETVKISCKASGYTFTNFGMNWVKQAPGKGLKWMGWINTYTGEPTYADDFKGRFAFSLETSASTAYLQINNLKNEDMATYFCARNGNFGYYFDYWGQGTTLTVSS
VL: DVLMTQTPLSLPVSLGDQASFSCRSSQNIVHSNGNTYLEWYLQKPGQSPSLLIYKVSNRFSGVPDRFSGSGSGTDFTLKITRVEAEDLGVYYCFQGSHVPFTFGSGTKLEIK
modifications: mus musculus
Consider B4, for which the “internalization via KIR3DL2” value in assay [5] is recorded as “capable of being internalized”.

B5: 2B12: anti-KIR3DL2 antibody, VH SEQ ID NO: 32, VL SEQ ID NO: 33 (antibody, listed as Mus musculus, V domains shown)
VH: QIQLVQSGPELKKPGETVRISCKASGYTFTTAGMQWVQKTPGKGLKWIGWINSHSGVPKYAEDFKGRFAFSLETSASTAYLQISTLKNEDTATYFCARGGDEGVMDYWGQGTSVTVS
VL: DIVMTQSHKFMSTSLGDRVSFTCKASQDVSTAVAWYQQKPGQSPKLLIYWTSTRHTGVPDRFTGSGSGTDYTLTISSVQAEDLALYYCQQHYSTPWTFGGGTKLEIK
As for B5, the “internalization via KIR3DL2” value in assay [5] was “do not induce any KIR3DL2 internalization”.

Values taken from patent US12448442B2, “Treatment of T cell lymphoma” (INNATE PHARMA, priority 2019, dated 2025).
